Results as given in the nanobody polyreactivity screen of Harvey et al. (2022).

assay: yeast display, Sf9 membrane polyspecificity reagent, FACS + sequencing; frameworks hold sequencing errors
In short: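 Polyreactivity labels are assigned by the sorting gate from which each nanobody was recovered. The gates were low and high (top ~1%), set on anti-HA fluorescence for expression and streptavidin fluorescence for reagent binding. Before sorting, galactose-induced (36–48 hours) yeast display cells were stained for 1 hour at 4 °C with 10% biotinylated, detergent-solubilized Sf9 membrane reagent.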

Row | Sequence | polyreactivity (PSR sort gate)
1 | QVQLVETGGGLVQAGGSLRLSCAASGSIFTRYVMGWYRQAPGKERELVAAISRSSGRTYYADSVKGRFTISRDNAKNTVYLQMNSLKPEDTAVYYCAAYAVESYKYDYWGQGTQVTVSS | high polyreactivity
2 | QVQLVESGGGLVQAGGSLRLSCAASGRTFGKNAMGWYRQAPGKEREFVAAITSRGGSTYYADSVKGRFTISRDNAKNTVYLQMNSLIPEDTAFYYCNREYKRPSQRTEHYYWGQGTQVTVSS | low polyreactivity
3 | QVQLVESGGGLVQAGGSLRLSCAASGSIFYSYAMGWYRQAPGTERELVAAISWDASTYYADSVKGRFTISRDNAKNTVYLQMNSLKPEDTAVYYCNADIPYYFVYDAYDYWGQGTQVTVSS | low polyreactivity
4 | QVQLVESGGGLVQAGGSLRLSCPASGFTFYRYAMGWYRQAPGKERELVASISWRGGNTYYADSVKGRFTISRDNEKNTVYLQMNSLKPEDTAVYYCAARGGVLKGYYYWGQGTQVTVSS | high polyreactivity
5 | QVQLVESGGGLVQAGGSLRLSCAASGSIFYGYARGWYRQAPGKERELVASITSSGGSTYYADSVKGRFTISRDNAKNTDYLQMNSLKPEDSAVYYCAVIGYHYSAISPPSQTRQGYDYWGQVTQVTVSS | low polyreactivity
6 | QVQLVESGGGLVQAGGSLRLSCAASGSTFSYNAMGWYRQAPGKVRELVASINSRGGTTYYADSVKGRFTISRDNAKNTVYLQMNSRKPEDTAVYYCATDVYRLGEYDYWGQGTQVTVSS | low polyreactivity
7 | QVQLVESGGGLVHAGGSLRLSCAASGLIFRGYAMGWYRQAPGKERELVAAISKSGGSTYYADSVKGRFTISRDNAKNTVYLQLNSLKPEDTAVYYCITDYVWKYFLSSQYDYWGQGTQVTVSS | high polyreactivity
8 | QVQLVESGGGLVQAGGSLRLSCAASGSTSDIYAMGWYRQAPGKEREFVAAISLTGGTTYYADSVKGRFTISCDNAKNTVYLQMNSLKPEDTAVYYCNADVGWWGYDDDYWGQGTQVTVSS | high polyreactivity
9 | QVQLVESGGGLVQAGGSLRLSCAASGRTFYFYTKGWYRQAPGKERELVATAITSGGSTNYADSVKGRFTISRDNAKNTVYLQMNSLKPEDTAVYYCNARYTYLWSSLYYWGQGTQVTVSS | low polyreactivity
10 | QVQLVESGGGLVQAGGSLRLSCAASGFTFRNYAMGWYRQAPGKERELVAVIDWSGGRTYYADSVKGRFTISRDNAKNTVYLQMNSLKPEDTAVYYCNAVYGYRAYGGYGYWGQGTQVTVSS | high polyreactivity
11 | QVQLVESGGGLVQAGGSLRLSCAASGITFRSYAMGWYRQAPGKERELVATISWSGGITYYADSVKGRFTISRDNAKITVYLQMNSLKPEDTAVYYCAKASQSWGRDDYYYWGQGTQLTVSS | low polyreactivity
12 | QVQLVESGGGLVQAGGSLRLSCAASGRIFGGNAMGWYRPAPGKERELVAAITTRGGSTYADSVKGRFTISRDNAKNTVYLQMNSLKPEDTAVYYCAVERSYHGGPRYLVRTYGYWGQGTQVTVSS | low polyreactivity
13 | QVQLVESGGGLVQAGGSLRLSCAASGRTFGINAMGWYRQAPGKERELVAVISGSGGNTYYADSVKGRFTISRDNEKNTVYLQMNSLKPEDTAVYYCATRYEKFRYDYWGQGTQVTVSS | low polyreactivity
14 | QVQLVESAGGLVQAGGSLRLSCAASGLIFYSYAMGWYRQAPGKERELVASITTRGSSTYYADSVKGRFTISRDNAKNTVYLQMNSLKPEDTAVYYCAADRLYYRYPPDTGYGYWGQGTQVTVSS | low polyreactivity
15 | QVQLVESGGGLVQAGGSLRLICAASGSILGTYAMGWYRQAPGKERELVAAITLSTDGTYYADSVKGRFTISRDNAKNTVYLQMNCLKPEDTAVYYFAAPWNWRWVTQWGYYVRADYYWGQGSQVTVSS | low polyreactivity
16 | QVQLVESGGGLVQAGGSLRLSCAASGSTFYRYAMGWYRQAPGKERELVARIRLSGTSTYYADSVKGRFTISRDNAKNTVYLQMNSLKPEDTAVYYCAAELYSRNWRSQYDYWGQGTQVTVSS | high polyreactivity
17 | QVQLVESGGGLVQAGGSLRLSCAASGLTFRYYAMGWYRQAPGKERELVAAITRRGSTYYADSVKGRFTISRDNAKNTVYLQMNCLKPEDTAVYYCATVTGFHSSPLRDLDYWGQGTQVTVSS | high polyreactivity
18 | QVQLVESGGGLVQAGGSLRLSCAASGGTFYRYAMGWYRQAPGKERELVAVISKRGGTTYYADSVKGRFTISRDNAKNTVYLQMNSLKPVDTAVYYCAVRAPQSYGYDYWGQGTQVTVSS | high polyreactivity
19 | QVQLVESGGGLVQAGGSLRISCAASGSTFDDNAMGWYRQAPGKERELVASITYRGGSTYYADSVKGRFTISRDNAKNTVYLQMNSLKPEDTAVYYCAKGHYFKYDYWGQGTQVTVSS | low polyreactivity
20 | QVQLVESVGGLVQAGGSLRLSCAASGSILWLYAMGWYRQAPGKERELVAAISGSGRTNYADSEKGLFTISRDNAKNTVYLQMNSQKPEDTAVYYCARVHGTSESKYYYWGQGTQVTVSL | low polyreactivity

Row | Sequence | polyreactivity (PSR sort gate)
21 | QVQLVESGGGLVQAGGSLRLSCAASGNTFKDYTMGWFRQAPGTERELVASINSGGSTNYADSVKGRFTISRDNAKNTVYLQMNSLKPEDTAVYDCAKRAWSDYNPIDYWGQGTQVTVSS | low polyreactivity
22 | QVQLVESGGGLVQAGGSLRLSCAASGSTFVYNAMGWYRQAPGKERELVAAISSRGGGTYYADSVKGRFTISRDNAKNSVYLQMYSLKPEDTAVYYCNTLPYTHGSNDYWGQGTQVTVSS | high polyreactivity
23 | QVQLVESGGGLVQAGGSLRLTSADSGSTFSFSAMRWYRQAPGKERELVAAIRSSVGSTYYADSVKGRFTISRDNAKNTVYLQMNSLKPEDTAVYNCAATTHWFRSYREFYYWGQGTQVTVSS | high polyreactivity
24 | QVQLVESGGGLVQAGGSLRLSCAASGLTFNVYAMGWSRQAPGTERELVAALTSGGRTYYADSVKGRFTISRDNEKNTVYLQMNSLKPEDTAVYYCSKSRWYGYSLSGAKRQRSFDYWGQGTQVTVSS | high polyreactivity
25 | QVQLEESGGGLVPAGGILRLSCAASGSIFSPNAIGWYRQAAGKEMELDASISSRGGSTYYADSVKGRFNISRDYAKNTVYLKMNSLKPEDTAVYYCAAAVQTRRGTRFDYWGQGTQVTVSS | low polyreactivity
26 | HVKLQESCGGLVPAGGSLRLSSAASATISYARNMASYLQAPGTERELVAAIDRGASTYYADSVKGLFTISRDNAKNTVYLQIYSLKPEDTAVYYCAAEYHDRWEDRYWGQGTQGTVSS | high polyreactivity
27 | QVQLVESGGGLVQAGGSLRLSCAASGSIFQYNAMGWYRQAPGKERELVADITSAGRTYYADSVKGRFTISRDNAKNTVYLQMNSLKPEDTAVYYCNKDYHYHFSWYGYWGQGTQVTVSS | low polyreactivity
28 | QVQLVESGGGLVQAGGSLRLSCAASGIIFNRYAMGRYRQAPGKERELVASITSSGGSTHYADSVKGRFTISRDNAKNTVYLQMNSLKPEDTAVYYCAKQFPNNYRYYLHYYYWGQGTQVTVSS | low polyreactivity
29 | QVQLVESGGGLVQAGRSLRLSCAASGLIFSWYAMGWYRQAPGKEREFVAAIRWSGSGTYYADSVKGRFTISRDNAKNTVYLQMNSLKPEDTAVYYCAVRWSSGSRRYNYWGQGTQVTVSS | high polyreactivity
30 | QVQLVESGGGLVQAGGSLRLSCAASGSNFRPYAMGWYRPAPGKERELVAAISYRGGSTYYADSVKGRFTISRDNAKNTVYLQMNSLKPEDTAVYYCAADSREEGDYWGQGTQVTVSS | low polyreactivity
31 | QFQLVESGGGLVQAGGSLRLSCAASGQILPYYAMGWYRQAPGKERELVAAISRTGGRTSYADSVNGRLTISRDNAKNTFYLQMNSLSPEDTAVYYCAAVGQSGGRRYDYWGQGTQVTVSS | high polyreactivity
32 | QVQLVESGGGLVQAGGSLRISCAASGFIFPFYAMGWYRQAPVKERELVATITSGGSTNYADSVKGRFTISRDNAKNTVYLQMNSQKPEDTAVYYCAAVIVPYGPSTFRVVGLDYWGQGTQVTVSS | low polyreactivity
33 | QVQLVESGGGLVQAGGSLRLSCAASGRTFYIYAMGWYRQAPGKERELVASINWSTGRTYYADSVKGRFTISRDNAKNTVYLQMNSLKPEDTAVYYCATDGDYYYISQGRRGYRYNYWGQGTQVTVSS | high polyreactivity
34 | QVQLVESGGGLVQAGGSLRLSCAASGFIFRPYAMGWYRQAPGKERELVAAITGGGSTYYADSVKGRFTISRDNAKNTVYLQMNSLKPEDTAVYYCAKDKGRAYFGPSPYDYWGQGTQVTVSS | low polyreactivity
35 | QVQLVESGGGLVQAGGSLRLSCAASGFIFYIYAMGWYRQAPGKERELVAAISRSSARTYYADSVKGRFTISRYNAKNTVYLQMISLKPEDTAVYDCAARYSGQWYRGPQYGYWGQGTQVTVSS | high polyreactivity
36 | QVQLVESGGGLVQAGGSLSLSCAASGSTFKRYAMGWYRQAPGKERDLVASISSGGSTNYADSVKGRFTISRDNAKNTVNLQMNSLKPEETAVYYCAVSYRSFRYYWERYYSWGQGTQVTVSS | high polyreactivity
37 | QVQLVESGGGLVQAGGSLRLSCAASGRTFYGNAMGWYRQAPGTEREFVAAITRSGGTTYYADSVKGRFTISRDNAKNTVYLQMNSLKPEDTAVYYCARSYGWYRWAGYDYWGQGTQVTVSS | high polyreactivity
38 | QVQLVESGGGLVQAGGSLRLSCAASGRIVYSNTMGWYRQAPGKERELVARIDTGGGSTYADSVKGRFTISRDNAKNTVYLQMNSLKPEDTAVYYCNKKGRWRSWGSTSLVSMDYWGQGTQVTVSS | low polyreactivity
39 | QVQHVESAAGLVQAGGSLRLSCAASGRIFYATVMGWYRQAHGKVREFVAAIRWSGSTYYADSVKGRFTISRDNAKNTVYLQMNSLKRVDTAVYYCADEGSRWYYFFYVGGGYWGQGTQVTVSS | low polyreactivity
40 | QDQLVESGGGLVQAGGSLRLSCAASGRIFYTNAMGWYRQAPGQERDLVAVISWGGDTTYYADSVKGRFTISRDNAKNTVYLQMNSLKPEDTAVYYCNGDWGPTYEIYDSWGQGTQVTVSS | low polyreactivity
